Test results: patent US7732178B2, “Laccase enzymes and their uses” (AB Enzymes Oy, priority 2004, dated 2010)

How the values were obtained:
[1] = Specific activity towards ABTS; type: biochemical; details: 25 mM succinate buffer pH 4.5, 25° C.
Description: The activity assay was carried out in accordance with the method developed by Niku-Paavola et al. (1988). The sample was diluted with 0.025 M succinate buffer, pH 4.5. […] The activity is expressed as nano katals.
(§1) Specific activities of the purified T. arenaria and C. thermophilum laccases were determined towards different laccase substrates.

[2] = Specific activity towards di-methoxy-phenol (DMP); type: biochemical; details: 25 mM MES buffer, pH 5.5
Description: as §1

[3] = Specific activity towards syringaldazine; type: biochemical; details: 25 mM MES buffer, pH 5.5
Description: as §1

[4] = Specific activity towards guaiacol; type: biochemical; details: 25 mM MES buffer, pH 5.5
Description: as §1

[5] = Isoelectric focusing (pI); type: physicochemical; details: pH range 3-9
Description: Molecular weight of the T. arenaria and C. thermophilum laccases were determined on SDS-PAGE according to Laemmli (1970) The gels used in the SDS-PAGE analysis were ready-made 12% Tris HCl gels (BioRad). Protein bands were visualized by staining with Coomassie Brilliant Blue (R 350; Pharmacia) and compared with molecular weight markers (Prestained Protein Marker Broad Range #7708S; New England BioLabs, Beverly, Mass.). The molecular weight of the both laccases was approximately 80 kDa. The isoelectric point of the laccases was determined with isoelectric focusing within the pH range of 3-9 (Pharmalyte IEF, Pharmacia) on a LKB 2117 Multiphor II Electrophoresis System (LKB Pharmacia, Bromma, Sweden) according to the manufacturer's instructions.
The purified recombinant Thielavia and Chaetomium laccases were characterized in terms of pH optimum, thermal stability, and pI as described in Example 2. The molecular weight was determined by MALDI-TOF mass spectrometry on a Ultraflex™ time-of-flight instrument (BrukerDaltonics, Germany) as previously described (Palonen et al., 2003). The redox-potentials of the T1 coppers of for CtLcc, and TaLcc2 laccases were determined by photometric copper titration in 0.1 M KH2PO4 (pH 6.0) as described by Xu et al. (1996) using the redox titrant couple K3Fe(CN)6/K4Fe(CN)6. The redox potential of TaLcc1 was determined with a combined Pt—AgCl/KCl microelectrode at pH 5.0 according to Sigoillot et al (2004). The characterization results are collected to Table 14.

B1: TaLcc3: Thielavia arenaria ALKO 4197 laccase, SEQ ID NO: 43, produced in Trichoderma reesei (protein)
chain: MVCLQYQLTAACFAVLAVVTTPASCSPVQPSPVHDLLPRQTIIPGGKPCGQNNATNRGCWKNNWNITTDYEVDTPPAFNTRVYDLHITNVTNWLGPDGVRKPAMLINGSFPGPTISADWGDYIIVNVHNDMQDNGTSIHWHGIRQLGESNQDGANGVTECPIPPGSSKTYDFHVTQYGTSWYHSHYSNQYGNGVVGALIVRGPASANYDIDLGPYLISDYYYETADRLHLRAELVSNGPPPDSDNILFRGKNINPKRAGSGSYDRLVLTPGKKHLIRLINASVDNSFVISLVGHNFTVISTDMVPITPVVRSSLFMGVGQRYDVIVEANQPVGNYWLNATLEAQNNCGHSVNPFPAAIVQYEGASSTALPTNRGTPLTATCNGEKGFSPIVKRTVSSSLFQPSTLPVSLEFPTTDRGQVFEWRVKNTPISVEWEHPVLEYILQGNTSFPAKANLIEVPQANVWTFWVIQNGFGLPHPIHLHGHDFLVLGVGNGTFDAASMRGLLNFNNPVRRDVEQMPGNGWLVIAFKTDNPGCWLMHCHIGWHVAMGLGIQFLERRSDILALMKLDQMVPNCEAWRAYARTSPYLPKLDSGLKRGVEMREGMEPAVRRIG
modifications: Thielavia arenaria ALKO4197; (1)..(611) Deduced amino acid sequence of Thielavia arenaria LAKO4197 TaLcc3
For B1, the “Specific activity on ABTS” value [1] was 8.3 nkat/mg, the “Specific activity on DMP” value [2] was 2.1 nkat/mg and the “Specific activity on syringaldazin” value [3] was 3.6 nkat/mg. The “Specific activity on guaiacol” value [4] was 0 nkat/mg and the pI [5] was 7.0-8.0.

B2: MaL: well-known fungal laccase from Melanocarpus albomyces (protein, UniProt Q70KY3 51-609, looked up)
Laccase-1: EPTCNTPSNRACWSDGFDINTDYEVSTPDTGVTQSYVFNLTEVDNWMGPDGVVKEKVMLINGNIMGPNIVANWGDTVEVTVINNLVTNGTSIHWHGIHQKDTNLHDGANGVTECPIPPKGGQRTYRWRARQYGTSWYHSHFSAQYGNGVVGTIQINGPASLPYDIDLGVFPITDYYYRAADDLVHFTQNNAPPFSDNVLINGTAVNPNTGEGQYANVTLTPGKRHRLRILNTSTENHFQVSLVNHTMTVIAADMVPVNAMTVDSLFLAVGQRYDVVIDASRAPDNYWFNVTFGGQAACGGSLNPHPAAIFHYAGAPGGLPTDEGTPPVDHQCLDTLDVRPVVPRSVPVNSFVKRPDNTLPVALDLTGTPLFVWKVNGSDINVDWGKPIIDYILTGNTSYPVSDNIVQVDAVDQWTYWLIENDPEGPFSLPHPMHLHGHDFLVLGRSPDVPAASQQRFVFDPAVDLARLNGDNPPRRDTTMLPAGGWLLLAFRTDNPGAWLFHCHIAWHVSGGLSVDFLERPADLRQRISQEDEDDFNRVCDEWRAYWPTNPYPKIDSGL
For B2, the “Specific activity on ABTS” value [1] was 840 nkat/mg, the “Specific activity on DMP” value [2] was 290 nkat/mg and the “Specific activity on syringaldazin” value [3] was 380 nkat/mg. For the same molecule, the “Specific activity on guaiacol” value [4] was 90 nkat/mg.
